Reference: patent publication US20140087995A1 (published 2014)
One block for each binder: values may come before it. Numbered stars: 1 amine (or outer) side, 2 acyl side, 3 side chain; on linkers, the order of the positions; unused ones are H or OH. Bridge positions count the residues as written; N and C are the ends. Side chains are listed from the residue outwards. Ends that are not written are not given here. * marks the point of attachment. C20 diacid = O=C(O)CCCCCCCCCCCCCCCCCCC(=O)*; C18 diacid = O=C(O)CCCCCCCCCCCCCCCCC(=O)*; C16 diacid = O=C(O)CCCCCCCCCCCCCCC(=O)*; γGlu = O=C(O)[C@H](CCC(=O)[*:2])N[*:1]; C14 diacid = O=C(O)CCCCCCCCCCCCC(=O)*; AEEA = NCCOCCOCC(=O)O

Target: T1, human calcitonin receptor (human, UniProt P30988 25-474)
T1 sequence (looked up): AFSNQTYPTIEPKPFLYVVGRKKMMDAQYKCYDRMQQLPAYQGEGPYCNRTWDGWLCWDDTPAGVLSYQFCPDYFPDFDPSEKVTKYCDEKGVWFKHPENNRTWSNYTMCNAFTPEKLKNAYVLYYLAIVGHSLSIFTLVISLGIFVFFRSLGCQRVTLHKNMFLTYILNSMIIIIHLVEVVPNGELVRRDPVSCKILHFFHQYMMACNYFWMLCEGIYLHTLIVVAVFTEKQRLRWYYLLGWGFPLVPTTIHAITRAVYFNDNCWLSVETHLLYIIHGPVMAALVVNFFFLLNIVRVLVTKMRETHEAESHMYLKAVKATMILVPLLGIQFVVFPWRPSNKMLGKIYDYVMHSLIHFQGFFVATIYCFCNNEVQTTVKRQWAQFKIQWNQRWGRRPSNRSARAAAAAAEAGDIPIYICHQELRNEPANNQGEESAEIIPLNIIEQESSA
Test: cell-based or functional assay

- hCTR funct. EC50 (pM): 5850 pM
B2: N^ε1-[(4S)-4-carboxy-4-(17-carboxyheptadecanoylamino)butanoyl]-[Arg17,Pro21,Pro27,His34]-h-amylin (peptide)
peptide: K([γGlu-C18 diacid])CNTATCATQRLANFLRHSSPNFGAIPSSTNVGHNTY-NH2
modifications: disulfide 2-7; N-terminus assumed
SMILES: CC[C@H](C)[C@H](NC(=O)[C@H](C)NC(=O)CNC(=O)[C@H](Cc1ccccc1)NC(=O)[C@H](CC(N)=O)NC(=O)[C@@H]1CCCN1C(=O)[C@H](CO)NC(=O)[C@H](CO)NC(=O)[C@H](Cc1c[nH]cn1)NC(=O)[C@H](CCCNC(=N)N)NC(=O)[C@H](CC(C)C)NC(=O)[C@H](Cc1ccccc1)NC(=O)[C@H](CC(N)=O)NC(=O)[C@H](C)NC(=O)[C@H](CC(C)C)NC(=O)[C@H](CCCNC(=N)N)NC(=O)[C@H](CCC(N)=O)NC(=O)[C@@H](NC(=O)[C@H](C)NC(=O)[C@@H]1CSSC[C@H](NC(=O)[C@@H](N)CCCCNC(=O)CC[C@H](NC(=O)CCCCCCCCCCCCCCCCC(=O)O)C(=O)O)C(=O)N[C@@H](CC(N)=O)C(=O)N[C@@H]([C@@H](C)O)C(=O)N[C@@H](C)C(=O)N[C@@H]([C@@H](C)O)C(=O)N1)[C@@H](C)O)C(=O)N1CCC[C@H]1C(=O)N[C@@H](CO)C(=O)N[C@@H](CO)C(=O)N[C@H](C(=O)N[C@@H](CC(N)=O)C(=O)N[C@H](C(=O)NCC(=O)N[C@@H](Cc1c[nH]cn1)C(=O)N[C@@H](CC(N)=O)C(=O)N[C@H](C(=O)N[C@@H](Cc1ccc(O)cc1)C(N)=O)[C@@H](C)O)C(C)C)[C@@H](C)O
notes: synthetic peptide amide

- hCTR funct. EC50 (pM): 3640 pM
B3: N^ε1-[(4S)-4-carboxy-4-(19-carboxynonadecanoylamino)butanoyl]-[Asp14,Arg17,Pro21,Pro27,Pro34,Arg35]-h-amylin (peptide)
peptide: K([γGlu-C20 diacid])CNTATCATQRLADFLRHSSPNFGAIPSSTNVGPRTY-NH2
modifications: disulfide 2-7; N-terminus assumed
SMILES: CC[C@H](C)[C@H](NC(=O)[C@H](C)NC(=O)CNC(=O)[C@H](Cc1ccccc1)NC(=O)[C@H](CC(N)=O)NC(=O)[C@@H]1CCCN1C(=O)[C@H](CO)NC(=O)[C@H](CO)NC(=O)[C@H](Cc1c[nH]cn1)NC(=O)[C@H](CCCNC(=N)N)NC(=O)[C@H](CC(C)C)NC(=O)[C@H](Cc1ccccc1)NC(=O)[C@H](CC(=O)O)NC(=O)[C@H](C)NC(=O)[C@H](CC(C)C)NC(=O)[C@H](CCCNC(=N)N)NC(=O)[C@H](CCC(N)=O)NC(=O)[C@@H](NC(=O)[C@H](C)NC(=O)[C@@H]1CSSC[C@H](NC(=O)[C@@H](N)CCCCNC(=O)CC[C@H](NC(=O)CCCCCCCCCCCCCCCCCCC(=O)O)C(=O)O)C(=O)N[C@@H](CC(N)=O)C(=O)N[C@@H]([C@@H](C)O)C(=O)N[C@@H](C)C(=O)N[C@@H]([C@@H](C)O)C(=O)N1)[C@@H](C)O)C(=O)N1CCC[C@H]1C(=O)N[C@@H](CO)C(=O)N[C@@H](CO)C(=O)N[C@H](C(=O)N[C@@H](CC(N)=O)C(=O)N[C@H](C(=O)NCC(=O)N1CCC[C@H]1C(=O)N[C@@H](CCCNC(=N)N)C(=O)N[C@H](C(=O)N[C@@H](Cc1ccc(O)cc1)C(N)=O)[C@@H](C)O)C(C)C)[C@@H](C)O
notes: synthetic peptide amide

The remaining lines, values behind:

B1: N^ε1-[2-[2-[2-[[2-[2-[2-[[(4S)-4-carboxy-4-(19-carboxynonadecanoylamino)butanoyl]amino]ethoxy]ethoxy]acetyl]amino]ethoxy]ethoxy]acetyl]-[Arg17,Pro21,Pro27,Pro34 … (peptide)
peptide: K([AEEA-AEEA-γGlu-C20 diacid])CNTATCATQRLANFLRHSSPNFGAIPSSTNVGPNTY-NH2
modifications: disulfide 2-7; N-terminus assumed
SMILES: CC[C@H](C)[C@H](NC(=O)[C@H](C)NC(=O)CNC(=O)[C@H](Cc1ccccc1)NC(=O)[C@H](CC(N)=O)NC(=O)[C@@H]1CCCN1C(=O)[C@H](CO)NC(=O)[C@H](CO)NC(=O)[C@H](Cc1c[nH]cn1)NC(=O)[C@H](CCCNC(=N)N)NC(=O)[C@H](CC(C)C)NC(=O)[C@H](Cc1ccccc1)NC(=O)[C@H](CC(N)=O)NC(=O)[C@H](C)NC(=O)[C@H](CC(C)C)NC(=O)[C@H](CCCNC(=N)N)NC(=O)[C@H](CCC(N)=O)NC(=O)[C@@H](NC(=O)[C@H](C)NC(=O)[C@@H]1CSSC[C@H](NC(=O)[C@@H](N)CCCCNC(=O)COCCOCCNC(=O)COCCOCCNC(=O)CC[C@H](NC(=O)CCCCCCCCCCCCCCCCCCC(=O)O)C(=O)O)C(=O)N[C@@H](CC(N)=O)C(=O)N[C@@H]([C@@H](C)O)C(=O)N[C@@H](C)C(=O)N[C@@H]([C@@H](C)O)C(=O)N1)[C@@H](C)O)C(=O)N1CCC[C@H]1C(=O)N[C@@H](CO)C(=O)N[C@@H](CO)C(=O)N[C@H](C(=O)N[C@@H](CC(N)=O)C(=O)N[C@H](C(=O)NCC(=O)N1CCC[C@H]1C(=O)N[C@@H](CC(N)=O)C(=O)N[C@H](C(=O)N[C@@H](Cc1ccc(O)cc1)C(N)=O)[C@@H](C)O)C(C)C)[C@@H](C)O
notes: synthetic peptide amide; also called compound 98
- hCTR funct. EC50 (pM): 1630 pM

B4: N^ε1-[(4S)-4-carboxy-4-(13-carboxytridecanoylamino)butanoyl]-[Arg17,Pro21,Pro27,His34]-h-amylin (peptide)
peptide: K([γGlu-C14 diacid])CNTATCATQRLANFLRHSSPNFGAIPSSTNVGHNTY-NH2
modifications: disulfide 2-7; N-terminus assumed
SMILES: CC[C@H](C)[C@H](NC(=O)[C@H](C)NC(=O)CNC(=O)[C@H](Cc1ccccc1)NC(=O)[C@H](CC(N)=O)NC(=O)[C@@H]1CCCN1C(=O)[C@H](CO)NC(=O)[C@H](CO)NC(=O)[C@H](Cc1c[nH]cn1)NC(=O)[C@H](CCCNC(=N)N)NC(=O)[C@H](CC(C)C)NC(=O)[C@H](Cc1ccccc1)NC(=O)[C@H](CC(N)=O)NC(=O)[C@H](C)NC(=O)[C@H](CC(C)C)NC(=O)[C@H](CCCNC(=N)N)NC(=O)[C@H](CCC(N)=O)NC(=O)[C@@H](NC(=O)[C@H](C)NC(=O)[C@@H]1CSSC[C@H](NC(=O)[C@@H](N)CCCCNC(=O)CC[C@H](NC(=O)CCCCCCCCCCCCC(=O)O)C(=O)O)C(=O)N[C@@H](CC(N)=O)C(=O)N[C@@H]([C@@H](C)O)C(=O)N[C@@H](C)C(=O)N[C@@H]([C@@H](C)O)C(=O)N1)[C@@H](C)O)C(=O)N1CCC[C@H]1C(=O)N[C@@H](CO)C(=O)N[C@@H](CO)C(=O)N[C@H](C(=O)N[C@@H](CC(N)=O)C(=O)N[C@H](C(=O)NCC(=O)N[C@@H](Cc1c[nH]cn1)C(=O)N[C@@H](CC(N)=O)C(=O)N[C@H](C(=O)N[C@@H](Cc1ccc(O)cc1)C(N)=O)[C@@H](C)O)C(C)C)[C@@H](C)O
notes: synthetic peptide amide
- hCTR funct. EC50 (pM): 1090 pM

B5: N^ε1-[(4S)-4-carboxy-4-(15-carboxypentadecanoylamino)butanoyl]-[Arg17,Pro21,Pro27,His34]-h-amylin (peptide)
peptide: K([γGlu-C16 diacid])CNTATCATQRLANFLRHSSPNFGAIPSSTNVGHNTY-NH2
modifications: disulfide 2-7; N-terminus assumed
SMILES: CC[C@H](C)[C@H](NC(=O)[C@H](C)NC(=O)CNC(=O)[C@H](Cc1ccccc1)NC(=O)[C@H](CC(N)=O)NC(=O)[C@@H]1CCCN1C(=O)[C@H](CO)NC(=O)[C@H](CO)NC(=O)[C@H](Cc1c[nH]cn1)NC(=O)[C@H](CCCNC(=N)N)NC(=O)[C@H](CC(C)C)NC(=O)[C@H](Cc1ccccc1)NC(=O)[C@H](CC(N)=O)NC(=O)[C@H](C)NC(=O)[C@H](CC(C)C)NC(=O)[C@H](CCCNC(=N)N)NC(=O)[C@H](CCC(N)=O)NC(=O)[C@@H](NC(=O)[C@H](C)NC(=O)[C@@H]1CSSC[C@H](NC(=O)[C@@H](N)CCCCNC(=O)CC[C@H](NC(=O)CCCCCCCCCCCCCCC(=O)O)C(=O)O)C(=O)N[C@@H](CC(N)=O)C(=O)N[C@@H]([C@@H](C)O)C(=O)N[C@@H](C)C(=O)N[C@@H]([C@@H](C)O)C(=O)N1)[C@@H](C)O)C(=O)N1CCC[C@H]1C(=O)N[C@@H](CO)C(=O)N[C@@H](CO)C(=O)N[C@H](C(=O)N[C@@H](CC(N)=O)C(=O)N[C@H](C(=O)NCC(=O)N[C@@H](Cc1c[nH]cn1)C(=O)N[C@@H](CC(N)=O)C(=O)N[C@H](C(=O)N[C@@H](Cc1ccc(O)cc1)C(N)=O)[C@@H](C)O)C(C)C)[C@@H](C)O
notes: synthetic peptide amide
- hCTR funct. EC50 (pM): 2210 pM
